In assay [1] the target is T1, human CRHR2 (Homo sapiens, UniProt Q13324).
T1 construct: expressed in transfected cells
T1 sequence (Q13324 1-411): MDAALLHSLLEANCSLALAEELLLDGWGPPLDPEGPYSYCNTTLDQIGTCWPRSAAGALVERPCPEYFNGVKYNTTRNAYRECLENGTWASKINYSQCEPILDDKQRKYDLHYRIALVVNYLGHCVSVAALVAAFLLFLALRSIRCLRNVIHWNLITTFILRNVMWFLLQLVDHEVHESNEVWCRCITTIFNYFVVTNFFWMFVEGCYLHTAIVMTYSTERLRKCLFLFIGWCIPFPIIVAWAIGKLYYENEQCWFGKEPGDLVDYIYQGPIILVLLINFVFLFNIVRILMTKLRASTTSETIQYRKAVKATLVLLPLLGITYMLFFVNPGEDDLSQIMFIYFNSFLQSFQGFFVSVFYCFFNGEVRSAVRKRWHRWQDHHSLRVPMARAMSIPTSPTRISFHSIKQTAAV
The assay is described as follows: cAMP assay, h-CRHR2 transfected SK-N-MC cells. In kind it is cell-based. The note with it: Table 13; for EC50: cysteine mutation, N-ethylmaleimide capping, pegylation, read-out: pA50 (converted); for Log DR [M]: h-SCP control pA50 minus test compound pA50 within the same assay batch. As for the experimental part:
The concentration required for 50% maximum effect (A50) was 0.4 nM.
Human CRHR1 (accession number X72304) or CRHR2 (accession number U34587) were cloned into pcDNA3.1/Zeo expression vector and stably transfected into SK—N-MC cells by electroporation. Cells were maintained in MEM w/Earl's Salt with 10% FBS, 50 I.U. penicillin, 50 μg/ml streptomycin, 2 mM L-glutamine, 1 mM sodium pyruvate and 0.1 mM non-essential amino acids, 600 μg/ml G418. Cells were grown at 37° C. in 5% CO2
Cells were plated in 96-well tissue culture dishes (Biocoat from BD Biosciences) overnight at 50,000 cell/well. Cells were washed with PBS then resuspended in DMEM F-12 without phenol red, containing 10 μM isobutylmethylxanthine (IBMX). Cells were incubated with the peptides at concentrations ranging from 1 pM to 10 μM for 60 min at 37° Celsius. […] Forskolin (10 μM), a direct stimulant of adenylate cyclase, was used as positive control. The assays were stopped by the addition of 0.5 M HCl and mixing by orbital rotation for 2 h at 4° Celsius.
To assess the activity of the inventive polypeptide at the CRHR2, an intracellular cAMP measurement test using a Flash plate radioactive assay (Catalog No. Cus56088; Perkin Elmer, Mass., U.S.A.) was employed.
Transfected SK—N-MC cells were plated in 96-well Biocoat tissue culture dishes (BD Biosciences, San Jose, Calif., U.S.A) overnight at 50,000 cell/well. Cells were first washed with PBS and then suspended with DMEM/F-12 without phenol red, containing […]. Suspended cells were transferred into a 96-well flash plate coated with scintillant fluid. Cells were incubated with peptides ranging from 1 pM to 1 μM, for 60 min, at 37° Celsius. Forskolin at 10 μM was used as positive control. After ligand stimulation, cells were lysed by the addition of 0.5M HCl and mixed by orbital rotation for 2 h at 4° Celsius in order to release intracellular cAMP into the media.
Media containing released intracellular cAMP was transferred to a 96-well flash plate coated with scintillant fluid containing an anti-cAMP antibody. In this assay, intracellular cAMP competes with ^125I-labeled cAMP binding to the antibody. To generate a standard curve, cAMP ranging from 2.5 to 250 pmoles/ml was included in the experiment. [^125I]-cAMP was measured on a TopCount scintillation counter (Perkin Elmer, Mass., U.S.A).
Individual agonist concentration-response curve data were fitted to the Hill equation, see formula below, using GraphPad Prism (Graphpad Software, La Jolla, Calif., U.S.A.), to provide estimates of agonist concentration needed to generate one-half maximal response (A50), and the maximal asymptote (α) and Hill slope (nH) parameters. In this equation, [A] is the agonist concentration and E is the measured effect:
For display purposes the mean fitted parameter estimates were used to generate a single E/[A] curve shown superimposed on the mean experimental data. Potency estimates for agonists, pA50, are expressed as the negative logarithm of the midpoint of each curve and listed with their standard error of measurement (SEM). Logarithm base 10 of the agonist dose ratio (Log DR) values were calculated by subtraction of the test compound pA50 value from the corresponding h-SCP (SEQ ID NO:1) control pA50 value within the same assay batch. The SEM values of the Log DR values are given by the square root of the sum of the squared SEM values of the h-SCP (SEQ ID NO:1) control and test compound pA50 values.
Human and rat peptides (see Table 10) were used on the stimulation of h-CRHR1 or h-CRHR2 transfected SK—N-MC cells in the cAMP flash plate assay. Peptides were incubated for 1 hr at 37° Celsius. Curves were calculated using non-linear regression sigmoidal concentration-response analysis calculation in GraphPad Prism. The so obtained pA50 values are shown in Table 11 in addition to literature values. […]

The target in assay [2] is T2, human corticotrophin releasing hormone receptor type 2 (CRHR2) (human, UniProt Q13324 1-411).
T2 sequence (looked up): T1 sequence (Q13324 1-411)
The assay is described as follows: cell-based or functional assay.

Where a SMILES comes first, the peptide text is derived from it. Where no end group is shown, it is not given here. The star is where a group is joined. Succinimide(1-Et,3-yl) = CCN1C(=O)CC(*)C1=O Where only a bound is given, the exact number is not on record here.

On to “TKFTLSLDVPTNIMNLLFNIAKAKNLRAQAAANACLMAQI-NH2 [SEQ ID NO: 36, TKFTLSLDVPTNIMNLLFNIAKAKNLRAQAAANACLMAQI-NH2]”, for which, in assay [1], the EC50 is 0.794 nM and the “Log DR [M]” value is recorded as 0.42.

For “H-TKFTLSLDVPTNIMNLLFNIAKAKNLRAQACANAHLMAQI-NH2 [SEQ ID NO: 32, TKFTLSLDVPTNIMNLLFNIAKAKNLRAQACANAHLMAQI-NH2]”, in assay [1], the EC50 was 0.389 nM and the “Log DR [M]” value came out at 0.11.

As to “TKFTLSLDVPTNIMNLLFNIAKAKNLRAQAAANAHLCAQI-NH2 [SEQ ID NO: 38, TKFTLSLDVPTNIMNLLFNIAKAKNLRAQAAANAHLCAQI-NH2]”, in assay [1], the EC50 is approximately 214 nM and the “Log DR [M]” value is listed as more than 2.95.

For the molecule “TKFTLSLDCPTNIMNLLFNIAKAKNLRAQAAANAHLMAQI-NH2 [SEQ ID NO: 10, TKFTLSLDCPTNIMNLLFNIAKAKNLRAQAAANAHLMAQI-NH2]”, in assay [1], the EC50 is 5.25 nM and the “Log DR [M]” value turned out to be 1.30.

Turning to “TKFTLSLDVPTNIMNLLFNIAKAKNLRAQAAACAHLMAQI-NH2 [SEQ ID NO: 34, TKFTLSLDVPTNIMNLLFNIAKAKNLRAQAAACAHLMAQI-NH2]”, in assay [1], the EC50 is approximately 479 nM and the “Log DR [M]” value is listed as more than 3.19.

Consider “TKFTLSCDVPTNIMNLLFNIAKAKNLRAQAAANAHLMAQI-NH2 [SEQ ID NO: 8, TKFTLSCDVPTNIMNLLFNIAKAKNLRAQAAANAHLMAQI-NH2]”, for which, in assay [1], the EC50 was approximately 151 nM and the “Log DR [M]” value came to 2.86.

Turning to `CC[C@H](C)[C@H](NC(=O)[C@H](CCC(N)=O)NC(=O)[C@H](C)NC(=O)[C@H](CCSC)NC(=O)[C@H](CC(C)C)NC(=O)[C@H](Cc1c[nH]cn1)NC(=O)[C@H](C)NC(=O)[C@H](CC(N)=O)NC(=O)[C@H](C)NC(=O)[C@H](CSC1CC(=O)N(CC)C1=O)NC(=O)[C@H](C)NC(=O)[C@H](CCC(N)=O)NC(=O)[C@H](C)NC(=O)[C@H](CCCNC(=N)N)NC(=O)[C@H](CC(C)C)NC(=O)[C@H](CC(N)=O)NC(=O)[C@H](CCCCN)NC(=O)[C@H](C)NC(=O)[C@H](CCCCN)NC(=O)[C@H](C)NC(=O)[C@@H](NC(=O)[C@H](CC(N)=O)NC(=O)[C@H](Cc1ccccc1)NC(=O)[C@H](CC(C)C)NC(=O)[C@H](CC(C)C)NC(=O)[C@H](CC(N)=O)NC(=O)[C@H](CCSC)NC(=O)[C@@H](NC(=O)[C@H](CC(N)=O)NC(=O)[C@@H](NC(=O)[C@@H]1CCCN1C(=O)[C@@H](NC(=O)[C@H](CC(=O)O)NC(=O)[C@H](CC(C)C)NC(=O)[C@H](CO)NC(=O)[C@H](CC(C)C)NC(=O)[C@@H](NC(=O)[C@H](Cc1ccccc1)NC(=O)[C@H](CCCCN)NC(=O)[C@@H](N)[C@@H](C)O)[C@@H](C)O)C(C)C)[C@@H](C)O)[C@@H](C)CC)[C@@H](C)CC)C(N)=O` (stereo partly drawn) [SEQ ID NO: 46, TKFTLSLDVPTNIMNLLFNIAKAKNLRAQAC(-NES)ANAH LMAQI-NH2] (H-TKFTLSLDVPTNIMNLLFNIAKAKNLRAQAC(Succinimide(1-Et,3-yl))ANAHLMAQI-NH2; N-terminus assumed), in assay [1], the EC50 is 0.372 nM and the “Log DR [M]” value is listed as 0.04.

Take TKFTLSLDVPTNICNLLFNIAKAKNLRAQAAANAHLMAQI-NH2 [Cys-variant stresscopin-like peptide SEQ ID NO: 15]: in assay [2], the “Log DR” value was 0.9 log10 and the pA50 is 8.68 -log10(M).

Consider TKFTLSLDVPTNIMCLLFNIAKAKNLRAQAAANAHLMAQI-NH2 [Cys-variant stresscopin-like peptide SEQ ID NO: 16], for which, in assay [2], the “Log DR” value amounted to 0.76 log10 and the pA50 is 8.93 -log10(M).

Turning to TKFTLSLDVPTNCMNLLFNIAKAKNLRAQAAANAHLMAQI-NH2 [Cys-variant stresscopin-like peptide SEQ ID NO: 14], in assay [2], the “Log DR” value was more than 2 log10 and the pA50 is ~7.34 -log10(M).

In the case of TKFTLSLDVPTCIMNLLFNIAKAKNLRAQAAANAHLMAQI-NH2 [Cys-variant stresscopin-like peptide SEQ ID NO: 13], in assay [2], the “Log DR” value was -0.01 log10 and the pA50 is 9.59 -log10(M).

With TKFTLSLDVPTCIMNLLFNIAKAKNLRAQAAANAHLMAQI (NES-PEG (about 20 kDa) on Cys 12; C-terminal amide (-NH2)) [Pegylated Cys-variant stresscopin-like peptide with NES linker and PEG about 20 kDa SEQ ID NO: 66], in assay [2], the “Log DR” value turned out to be 1.26 log10 and the pA50 is 8.31 -log10(M).

As for TKFTLSLDVPTNICNLLFNIAKAKNLRAQAAANAHLMAQI (NES-PEG (about 20 kDa) on Cys 14; C-terminal amide (-NH2)) [Pegylated Cys-variant stresscopin-like peptide with NES linker and PEG about 20 kDa SEQ ID NO: 68], in assay [2], the “Log DR” value is approximately 2.61 log10 and the pA50 is ~6.96 -log10(M).

For the molecule TKFTLSLDVPTNIMCLLFNIAKAKNLRAQAAANAHLMAQI (NES-PEG (about 20 kDa) on Cys 15; C-terminal amide (-NH2)) [Pegylated Cys-variant stresscopin-like peptide with NES linker and PEG about 20 kDa SEQ ID NO: 69], in assay [2], the “Log DR” value turned out to be 2.09 log10 and the pA50 was 7.45 -log10(M).

TKFTLSLDVPTNIMNCLFNIAKAKNLRAQAAANAHLMAQI (NES-PEG (about 20 kDa) on Cys 16; C-terminal amide (-NH2)) [Pegylated Cys-variant stresscopin-like peptide with NES linker and PEG about 20 kDa SEQ ID NO: 70]: in assay [2], the “Log DR” value is approximately 2.07 log10 and the pA50 was ~7.34 -log10(M).

In the case of TKFTLSLDVPTNCMNLLFNIAKAKNLRAQAAANAHLMAQI (NES-PEG (about 20 kDa) on Cys 13; C-terminal amide (-NH2)) [Pegylated Cys-variant stresscopin-like peptide with NES linker and PEG about 20 kDa SEQ ID NO: 67], in assay [2], the “Log DR” value was more than 3 log10 and the pA50 is ~6.35 -log10(M).

Take TKFTLSLDVPTNIMNLCFNIAKAKNLRAQAAANAHLMAQI-NH2 [Cys-variant stresscopin-like peptide SEQ ID NO: 18]: in assay [2], the “Log DR” value came to 1.11 log10 and the pA50 is 8.41 -log10(M).

As to TKFTLSLDVPTNIMNCLFNIAKAKNLRAQAAANAHLMAQI-NH2 [Cys-variant stresscopin-like peptide SEQ ID NO: 17], in assay [2], the “Log DR” value stood at 0.02 log10 and the pA50 was 9.5 -log10(M).

Source of the values: patent US20110105397A1, “METHOD FOR TREATING HEART FAILURE WITH STRESSCOPIN-LIKE PEPTIDES” (priority 2009, published 2011).
